Assay results taken from the supplement of paper PMC9170038.

Tested on: MS2 coat protein
Assay: apparent KD of MS2 coat protein; designed switch direction (-1 OFF switch, 1 ON switch): -1; higher = weaker reporter binding
How it was run: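 Designed RNA switches with common flanks were transcribed on Illumina chips by stalled E. coli RNA polymerase and titrated with SNAP-549-labelled MS2 coat protein, from 0.7 or 1.5 nM doubling to 3 µM, in Tris-HCl pH 7.5 buffer with KCl, MgCl2, BSA, DTT, tRNA and Tween-20. Steps lasted 0.8–1.5 h (lowest) to 10–20 min (highest). Titrations ran without input, with 200 uM small-molecule ligand, or with an oligonucleotide input. Normalised cluster fluorescence was curve-fitted, and apparent KD is the per-design median over clusters.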

[1] = input ligand: microRNA oligo, concentration not stated
[2] = Eterna round: R95, input ligand: microRNA oligo, concentration not stated
[3] = Eterna round: R95, input ligand: FMN 200 uM
[4] = Eterna round: R95, input ligand: none

Sequence	apparent KD of MS2 coat protein (input ligand: FMN 200 uM)	apparent KD of MS2 coat protein (input ligand: none)	apparent KD of MS2 coat protein [2]	also measured
UAAAAGCGAGGAUAUACAUGAGGAUCACCCAUGUGGGCAAAGUUCGCUAAGGUACCUAGUAGAAGGCGCGAAAU [Digeanin] (Eterna round: R97, puzzle: Exclusion 3)	450 nM	63.3 nM	–	–
AGCUGUGGCCGAGGAUAUCACUACCGAUGGAAAACCAUCGGAACUCCACAUGAGGAUCACCCAUGUGAGAAGGCGGUCUCAGCA [Eli eng2 - 029] (Eterna round: R96, puzzle: Exclusion NG 2)	24 nM	15.7 nM	–	apparent KD of MS2 coat protein [1]: 11.2 nM
GGAUCGAAAGUGAGGAUAUGCUGGUCCUUGGAUCAGCAGAAGGCACAUGAGGAUCACCCAUGUGGGAACGGUCC [Eli bmx4 4.46] (Eterna round: R97, puzzle: Brourd's mod of Exclusion 4)	1440 nM	298 nM	–	–
CUUCGACAUGAGGAUCACCCAUGUCAGGAUAUUGUUUAUCUGGUUUUUUACAGAUAUGCAAGAAGGGAUGUGUU [LRO-Excl1-03] (puzzle: Exclusion 1)	–	–	26.5 nM	–
CCUCUACAUGAGGAUCACCCAUGUCAGGAUAUCGUGUGUUUUUUUUCGGCCGCGCGUGCGAGAAGGGACGUCUU (Eterna round: R96, puzzle: Exclusion 1)	35.2 nM	36.2 nM	–	apparent KD of MS2 coat protein [1]: 26 nM
AGAGAGUCAGGAUAUCGAAGGUAGUGGAGAGGAGUGUGGUACGAGAAGGGACAUGAGGAUCACCCAUGUAGGAG [JR_Exclusion4)Sub008] (puzzle: Exclusion 4)	–	–	35.4 nM	apparent KD of MS2 coat protein [3]: 31 nM; apparent KD of MS2 coat protein [4]: 33.2 nM
UGGUCACAUGAGGAUCACCCAUGUCAGGAUAUCGUCACUGGAGCUUCGGCUCCAGUGACGAGAAGGGACAUAAU [E1/6-A1] (Eterna round: R97, puzzle: Exclusion 1)	47 nM	394 nM	–	–
CAGUACUGAGGAUAUACAUGAGGAUCACCCAUGUGUUGCAGCUAGGAAACUAGCAAAAGUAGAAGGCAGUACUG [salish99_ex3_r3_081] (puzzle: Exclusion 3)	–	–	12 nM	–
UUUAAUUUUUUUUUUUUACAAGCUUUUUGCUCGUCUUAUACAUGAGGAUCACCCAUGUAGGUGAAAGAUAAAUUAUC [JMF 4] (puzzle: Sensor v3, turn-off variant 2)	–	–	77.5 nM	apparent KD of MS2 coat protein [3]: 31.5 nM; apparent KD of MS2 coat protein [4]: 33.5 nM
CUUAUGUGAGGAUAUCAGUAGUAAUACAAUAGUAUUACUACUGAGAAGGCACAUGAGGAUCACCCAUGUUCCUU [Exclusion 4 - Mod Omei Ex4 344 mod v.1] (puzzle: Exclusion 4)	–	–	27.5 nM	–
UCUUAUUGAGGAUAUACAUUAAUUUACAUGAGGAUCACCCAUGUUCUUCAAUGUAUAUAUGUAGAAGGCAGAAGAU [Mat - Exclusion 5 - JL Mod - D29] (Eterna round: R97, puzzle: Exclusion 5)	41.4 nM	18.1 nM	–	–
GAUUGAUAAGGAUAUACAUGAGGAUCACCCAUGUGCUUCAGCUAGGAGACUAGCAUUGGUAGAAGGUAUUAAUC [Mod of lroppy 12 - Jieux - Exclusion 3] (Eterna round: R97, puzzle: Exclusion 3)	51.8 nM	21.8 nM	–	–
CUCUGCACGCUGCGGUCCUACAUGAGGAUCACCCAUGUGGUCUGGUGGCGUGGGUCACCGGACUUGGCUCGUCUUGC [salish99_S_TOV1_R5_051] (Eterna round: R97, puzzle: Sensor, turn-off variant 1)	21 nM	22.7 nM	–	–
CUUUUGUGAGGAUAUUAGUAGUAAAUAAUUAAAAUUAUUACUGAGAAGGCACAUGAGGAUCACCCAUGUAACUC [JR_Ex4_Sub027] (Eterna round: R97, puzzle: Exclusion 4)	400 nM	49.9 nM	–	–
UAGAAGUUCAACGAGUGAAACAUGAGGAUCACCCAUGUGGUGGUAAGGAACAAGCUUUUUGCACGUACUUAUGAGGA [JR_SV3TOV1_Sub004] (puzzle: Sensor v3, turn-off variant 1)	–	–	400 nM	apparent KD of MS2 coat protein [3]: 287 nM; apparent KD of MS2 coat protein [4]: 452 nM
GAUCUGGCAGGAUAUACAUGAGGAUCACCCAUGUGCGAGCUAGCGAAAGCUAGCUCAGGUAGAAGGGUCAGAUC [Ex3 dot plot directed v1] (puzzle: Exclusion 3)	–	–	10.8 nM	–
UUAAGUUCAGGAUAUGAUGAAUUAAACAUGAGGAUCACCCAUGUAGAUCCUGAAAUAACAUCAGAAGGGAAUAUUU [JL-ex5-4.51 Brourd mod] (Eterna round: R97, puzzle: Exclusion 5)	57 nM	17.6 nM	–	–
UAACCUCGCGUCAGGAUAUGUGAGGACUGUGACGCACAGAAGGGACAUGAGGAUCACCCAUGUGAAAGAAAUAA [Erlacema] (puzzle: Brourd's mod of Exclusion 4)	–	–	22.2 nM	–

Sequence	apparent KD of MS2 coat protein (input ligand: FMN 200 uM)	apparent KD of MS2 coat protein (input ligand: none)	apparent KD of MS2 coat protein [2]	also measured
UAUUAAUGCAAGGAUAUGCUUUUAAUUUUUUUUGCAGAAGGUGCAACAUGAGGAUCACCCAUGUUUCCGGGUAU [JR_E6_Sub032] (puzzle: Exclusion 6)	–	–	25.7 nM	–
UGGCGUUAAGGAUAUACAUGAGGAUCACCCAUGUUUCGGGAGAGCCAUUGAGCCGCAAGUAGAAGGUAGUACCC [Eternabot (L2) Solution 23] (Eterna round: R97, puzzle: Exclusion 3)	37.4 nM	47.9 nM	–	–
ACUAGAUGAGGAUAUGCAUGUUUUCGUGUUCUUCUAGAUUAACAUGAGGAUCACCCAUGUAGAAGGCGUCAUUU [Exclusion 2 - 27] (puzzle: Exclusion 2)	–	–	76.9 nM	–
UGUUGUCGCGCAGGAUAUUGUCAACAGGCAAUAGGAUAUCCGAAAGGAGAAGGAUCGCCAACAGGCGAGAAGGGCGGGACAACU [pwkr exNG2 2xF7 2xFMN.4] (Eterna round: R96, puzzle: Exclusion NG 2)	35.4 nM	1200 nM	–	apparent KD of MS2 coat protein [1]: 478 nM
GCCGCGCGAGGAUAUACAUGAGGAUCACCCAUGUGAAAUUAUAGUGAGGAAAUGAAAAGUAGAAGGCGCGCGGA [Mod of Mat 19 - Jieux - Exclusion 3] (Eterna round: R97, puzzle: Exclusion 3)	258 nM	37 nM	–	–
GUGGAGUAAGGAUAUACAUGAGGAUCACCCAUGUGAGGGUAUGUGAUGGGAGUAGGUUGUAGAAGGUACGAGGA [JR_Exclu3_Sub068] (puzzle: Exclusion 3)	–	–	160 nM	–
UUCCUGUCAGGAUAUGACUAGAUGCACGAAAGUGUGUUUACUUAGAAGGGACAUGAGGAUCACCCAUGUAGUCC [Bring Us a Shrubbery-17] (puzzle: Exclusion 4)	–	–	31.3 nM	–
CUCUAACACGCAGGAUAUGCAUCACCAUAAUUAGCAGAAGGGCGAAACACAUGAGGAUCACCCAUGUUGAGGAUCACCCAUGAC [Default title] (Eterna round: R96, puzzle: Exclusion NG 1)	22.1 nM	23.6 nM	–	apparent KD of MS2 coat protein [1]: 19.9 nM
UCAUUGGUAGGAUAUACAUGAGGAUCACCCAUGUGUCCGGAGCAGUAUGCUUGAAAACGUAGAAGGACCUAGGA [Eternabot (L1) Solution 15] (Eterna round: R97, puzzle: Exclusion 3)	45.3 nM	40.4 nM	–	–
CGUCUGUCAGGAUAUACUUACGUAGACAUGAGGAUCACCCAUGUGACGUGGGACUGGUGAGUAGAAGGGACGAACA [EX5 #75] (Eterna round: R97, puzzle: Exclusion 5)	28 nM	30.6 nM	–	–
AGGUCCUUCUGGACACAUGAGGAUCACCCAUGUGAGGUCAGCGAGGAUAUCGGUCUAUAAUGUGACGAGAAGGCGCGGACCGAU [Ex NG3 #59] (Eterna round: R96, puzzle: Exclusion NG 3)	16.8 nM	16.4 nM	–	apparent KD of MS2 coat protein [1]: 11.3 nM
CUUUUGUGAGGAUAUUAGUAGUAAAUAAAUAAAAUUACUACUGAGAAGGCACAUGAGGAUCACCCAUGUUUCUC [salish99_ex4_r3_065] (puzzle: Exclusion 4)	–	–	31.9 nM	–
AGGGCUGCUCAGGAUAUCCGUAAAAGCCGAGAAGGAGAAGGGAGCACAUGAGGAUCACCCAUGUGAUCCGAAAA [Verila] (puzzle: Exclusion 6)	–	–	19.7 nM	–
UCCGUACAUGAGGAUCACCCAUGUCAGGAUAUGCAGACCGGCCGCCAGCGACCGGCCCGCAGAAGGGACAUAGA [EX1 B.4] (Eterna round: R97, puzzle: Exclusion 1)	140 nM	30.7 nM	–	–
UGAUCAGACCGAGGAUAUAUAUGUAGGACGCACGUGAGUGCGUCCAAUACAUGAGGAUCACCCAUGUAGAAGGCGGUCUGAUCU [JL ENG2 1.97] (Eterna round: R96, puzzle: Exclusion NG 2)	18.5 nM	14.2 nM	–	apparent KD of MS2 coat protein [1]: 9.9 nM
CAGUACUGAGGAUAUACAUGAGGAUCACCCAUGUGUUCCAGCUAGGAAACUAGCAAAAUUAGAAGGCAGUACUG [salish99_ex3_r3_087] (puzzle: Exclusion 3)	–	–	11.3 nM	–
UCCUUACUGGUCAGGAUAUACAUUCGCUACUCCUUGUAGAAGGGACAUGAGGAUCACCCAUGUACGUUACAUCC [alecazam54b] (Eterna round: R97, puzzle: Brourd's mod of Exclusion 4)	22.9 nM	21.6 nM	–	–
ACAUGACAGCUAGGAUAUAUAUGACAUGAGGAUCACCCAUGUUGUCCCAUGUUGACGAAAACCGAAUAGAAGGAGCCACCCAUG [Ex NG2 #2] (Eterna round: R96, puzzle: Exclusion NG 2)	86.1 nM	71.4 nM	–	apparent KD of MS2 coat protein [1]: 53.6 nM
